Results published in patent US8957029 (MAX PLANCK GESELLSCHAFT ZUR FORDERUNG DER WISSENSCHAFTEN E V, dated 2015).
No end group written: not given here. fluorescein = fluorescein tag at the N-terminus

Molecular target: non-muscle actin
Assay: F-actin co-sedimentation, peptide fluorescence in pellet over total, hyperbolic fit

Kd: 5.4 µM
B1: F-Lifeact (chemically synthesized 17aa Lifeact peptide tagged with fluorescein at its N-terminus) (peptide)
peptide: fluorescein-MGVADLIKKFESISKEE
notes: also called fluorescein conjugated Lifeact; F-Lifeact peptide
